Data reported in patent publication US20060140932A1 (APPLIED MOLECULAR EVOLUTION, published 2006).

Assays:
human IL-1β [1] = target: T1, human IL-1β (human, UniProt P01584 117-269); assay: cell-based or functional assay
human IL-1β [2] = target: T1, human IL-1β; assay: SPR (BIAcore), captured antibody, human IL-1β flowed; protocol for Mu007 as in PCT/US02/21281; HBS-EP pH 7.4, 25 C
human IL-1β [3] = target: T1, human IL-1β; assay: cell-based or functional assay; remark: listed apart in the source
human IL-1β [4] = target: T1, human IL-1β; assay: SPR (BIAcore), antibody captured on protein A, human IL-1β flowed; HBS-EP pH 7.4, 25 C
Experimental: BIAcore™ is an automated biosensor system that measures molecular interactions. (Karlsson, et al. (1991) J. Immunol. Methods 145: 229-240). In these experiments antibody was captured to a surface at low density on a BIAcore™ chip. Ethyl-dimethylaminopropyl-carbodiimide (EDC) was used to couple reactive amino groups to protein A to a flow cell of a carboxy-methyl (CM5) BIAcore sensor chip. Protein A was diluted in sodium acetate buffer, pH 4.5, and immobilized on a flow cell of a CM5 chip using EDC to yield 1000 response units. Unreacted sites were blocked with ehanolamine. A flow rate of 60 μl/min was used. […] Elution was performed with glycine-HCl, pH 1.5. BIAevaluation™ was used to analyze the kinetic data.

B1: Mu007 (antibody, V domains shown)
VH: QVQLQQSGAELMKPGASVKISCKATGYTFSRYWIEWIKQRPGHGLEWIGEILPGNGNINYNEKFKGKATISADSSSETAYMQLSSLSSEDSAVYYCSTIYYDYDQGFTYWGQGTLVTVSA
VL: DIKMTQSPSSMYASLGERVTITCKASQDIDRYLSWFQQKPGKSPKTLIYRVKRLVDGVPSRFSGSASGQDYSLTISSLQYEDMGIYYCLQYDEFPYTFGGGTKLEIK
Fold Increase in Potency (against Mu007), T1165.17 cell proliferation assay (human IL-1β [1]): 1 fold | IC50, T1165.17 cell proliferation assay (human IL-1β 0.3 pM) (human IL-1β [1]): 20.6 pM | Kd (human IL-1β [2]): 6.2 pM | koff (human IL-1β [2]): 0.00016 s⁻¹ | kon (human IL-1β [2]): 2.6e+07 M⁻¹ s⁻¹

B2: W18 (IgG1) (antibody, V domains shown)
VH: QVQLVQSGAEVKKPGSSVKVSCKASGYTFDRYWIEWVRQAPGQGLEWMGEILPGSGTINYNEKFKGRVTITADKSTSTAYMELSSLRSEDTAVYYCARMYYDYDQGFDNWGQGTLVTVSS
VL: DIQMTQSPSSLSASVGDRVTITCKFSQDIDRFLSWFQQKPGKAPKSLIYRVKRLVDGVPSRFSGSGSGTDFTLTISSLQPEDFATYYCVQYDEFPYTFGGGTKVEIKR
notes: humanized, IgG1 kappa
IL-6 Serum Levels in mice, human IL-1β 3 µg/kg + antibody 13 µg/kg (human IL-1β [3]): 398 pg/mL | IL-6 Serum Levels in mice, human IL-1β 3 µg/kg + antibody 27 µg/kg (human IL-1β [3]): 232 pg/mL | IL-6 Serum Levels in mice, human IL-1β 3 µg/kg + antibody 81 µg/kg (human IL-1β [3]): 77.9 pg/mL | IL-6 Serum Levels in mice, human IL-1β 3 µg/kg + antibody 270 µg/kg (human IL-1β [3]): 18 pg/mL | Kd (human IL-1β [4]): 4.2 pM | koff (human IL-1β [4]): 0.00018 s⁻¹ | kon (human IL-1β [4]): 4.1e+07 M⁻¹ s⁻¹ | Fold Increase in Potency (against Mu007), T1165.17 cell proliferation assay (human IL-1β [1]): 10 fold | IC50, T1165.17 cell proliferation assay (human IL-1β 0.3 pM) (human IL-1β [1]): 2 pM

B3: W20 (IgG1) (antibody, V domains shown)
VH: QVQLVQSGAEVKKPGSSVKVSCKASGYTFDRYWIEWVRQAPGQGLEWMGEILPGSGDINYNEKFKGRVTITADKSTSTAYMELSSLRSEDTAVYYCARMYYDYDQGFDYWGQGTLVTVSS
VL: DIQMTQSPSSLSASVGDRVTITCKFSQDIDRFLSWFQQKPGKAPKSLIYRVKRLVDGVPSRFSGSGSGTDFTLTISSLQPEDFATYYCVQYDEFPYTFGGGTKVEIKR
notes: humanized, IgG1 kappa
Kd (human IL-1β [4]): 2.7 pM | koff (human IL-1β [4]): 0.0001 s⁻¹ | kon (human IL-1β [4]): 3.8e+07 M⁻¹ s⁻¹ | Fold Increase in Potency (against Mu007), T1165.17 cell proliferation assay (human IL-1β [1]): 17 fold | IC50, T1165.17 cell proliferation assay (human IL-1β 0.3 pM) (human IL-1β [1]): 1.2 pM

B4: W17 (IgG1) (antibody)
heavy: not shown
light: DIQMTQSPSSLSASVGDRVTITCKFSQDIDRFLSWFQQKPGKAPKSLIYRVKRLVDGVPSRFSGSGSGTDFTLTISSLQPEDFATYYCVQYDEFPYGFGGGTKVEIKRTVAAPSVFIFPPSDEQLKSGTASVVCLLNNFYPREAKVQWKVDNALQSGNSQESVTEQDSKDSTYSLSSTLTLSKADYEKHKVYACEVTHQGLSSPVTKSFNRGEC
notes: humanized, IgG1 kappa
IL-6 Serum Levels in mice, human IL-1β 3 µg/kg + antibody 13 µg/kg (human IL-1β [3]): 567 pg/mL | IL-6 Serum Levels in mice, human IL-1β 3 µg/kg + antibody 27 µg/kg (human IL-1β [3]): 410 pg/mL | IL-6 Serum Levels in mice, human IL-1β 3 µg/kg + antibody 81 µg/kg (human IL-1β [3]): 114 pg/mL | IL-6 Serum Levels in mice, human IL-1β 3 µg/kg + antibody 270 µg/kg (human IL-1β [3]): 27.5 pg/mL | Kd (human IL-1β [4]): 2.8 pM | koff (human IL-1β [4]): 9e-05 s⁻¹ | kon (human IL-1β [4]): 3.1e+07 M⁻¹ s⁻¹ | Fold Increase in Potency (against Mu007), T1165.17 cell proliferation assay (human IL-1β [1]): 11 fold | IC50, T1165.17 cell proliferation assay (human IL-1β 0.3 pM) (human IL-1β [1]): 1.8 pM

B5: W17 (IgG4) (antibody)
heavy: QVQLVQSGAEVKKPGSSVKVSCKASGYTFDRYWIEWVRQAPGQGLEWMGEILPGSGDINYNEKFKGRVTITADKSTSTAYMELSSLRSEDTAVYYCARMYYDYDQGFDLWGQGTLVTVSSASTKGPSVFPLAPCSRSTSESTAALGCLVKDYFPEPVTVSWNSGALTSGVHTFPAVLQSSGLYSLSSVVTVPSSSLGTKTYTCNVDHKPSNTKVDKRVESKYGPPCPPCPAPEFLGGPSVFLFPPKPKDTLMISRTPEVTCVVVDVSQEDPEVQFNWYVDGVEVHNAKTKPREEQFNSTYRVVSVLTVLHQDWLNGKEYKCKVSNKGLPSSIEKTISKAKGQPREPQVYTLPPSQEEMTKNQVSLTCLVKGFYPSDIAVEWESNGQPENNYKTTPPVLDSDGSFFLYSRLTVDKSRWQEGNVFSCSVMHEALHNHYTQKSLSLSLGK
light: DIQMTQSPSSLSASVGDRVTITCKFSQDIDRFLSWFQQKPGKAPKSLIYRVKRLVDGVPSRFSGSGSGTDFTLTISSLQPEDFATYYCVQYDEFPYGFGGGTKVEIKRTVAAPSVFIFPPSDEQLKSGTASVVCLLNNFYPREAKVQWKVDNALQSGNSQESVTEQDSKDSTYSLSSTLTLSKADYEKHKVYACEVTHQGLSSPVTKSFNRGEC
notes: humanized, IgG4 kappa
Kd (human IL-1β [4]): 3.3 pM | koff (human IL-1β [4]): 0.0001 s⁻¹ | kon (human IL-1β [4]): 3.2e+07 M⁻¹ s⁻¹ | Fold Increase in Potency (against Mu007), T1165.17 cell proliferation assay (human IL-1β [1]): 12 fold | IC50, T1165.17 cell proliferation assay (human IL-1β 0.3 pM) (human IL-1β [1]): 1.7 pM

B6: W13 (IgG1) (antibody, V domains shown)
VH: QVQLVQSGAEVKKPGSSVKVSCKASGYTFDRYWIEWVRQAPGQGLEWMGEILPGSGDINYNEKFKGRVTITADKSTSTAYMELSSLRSEDTAVYYCARMYYDYDQGFDYWGQGTLVTVSS
VL: DIQMTQSPSSLSASVGDRVTITCKFSQDIDRFLTWFQQKPGKAPKSLIYRVKRLVDGVPSRFSGSGSGTDFTLTISSLQPEDFATYYCIQYDEFPYTFGGGTKVEIKR
notes: humanized, IgG1 kappa
IL-6 Serum Levels in mice, human IL-1β 3 µg/kg + antibody 13 µg/kg (human IL-1β [3]): 655 pg/mL | IL-6 Serum Levels in mice, human IL-1β 3 µg/kg + antibody 27 µg/kg (human IL-1β [3]): 277 pg/mL | IL-6 Serum Levels in mice, human IL-1β 3 µg/kg + antibody 81 µg/kg (human IL-1β [3]): 129 pg/mL | IL-6 Serum Levels in mice, human IL-1β 3 µg/kg + antibody 270 µg/kg (human IL-1β [3]): 23.4 pg/mL | Kd (human IL-1β [4]): 2.8 pM | koff (human IL-1β [4]): 0.00017 s⁻¹ | kon (human IL-1β [4]): 6.1e+07 M⁻¹ s⁻¹ | Fold Increase in Potency (against Mu007), T1165.17 cell proliferation assay (human IL-1β [1]): 17 fold | IC50, T1165.17 cell proliferation assay (human IL-1β 0.3 pM) (human IL-1β [1]): 1.2 pM

B7: U43 (IgG1) (antibody, V domains shown)
VH: QVQLVQSGAEVKKPGSSVKVSCKASGYTFDRYWIEWVRQAPGQGLEWMGEILPGSGDINYNEKFKGRVTITADKSTSTAYMELSSLRSEDTAVYYCARMYYDYDQGFSLWGQGTLVTVSS
VL: DIQMTQSPSSLSASVGDRVTITCKASQDIDRFLSWFQQKPGKAPKSLIYRVKRLVDGVPSRFSGSGSGTDFTLTISSLQPEDFATYYCVQYDEFPYTFGGGTKVEIKR
notes: humanized, IgG1 kappa
IL-6 Serum Levels in mice, human IL-1β 3 µg/kg + antibody 13 µg/kg (human IL-1β [3]): 756 pg/mL | IL-6 Serum Levels in mice, human IL-1β 3 µg/kg + antibody 27 µg/kg (human IL-1β [3]): 509 pg/mL | IL-6 Serum Levels in mice, human IL-1β 3 µg/kg + antibody 81 µg/kg (human IL-1β [3]): 186 pg/mL | IL-6 Serum Levels in mice, human IL-1β 3 µg/kg + antibody 270 µg/kg (human IL-1β [3]): 39.3 pg/mL | Kd (human IL-1β [4]): 4.7 pM | koff (human IL-1β [4]): 0.00022 s⁻¹ | kon (human IL-1β [4]): 4.7e+07 M⁻¹ s⁻¹ | Fold Increase in Potency (against Mu007), T1165.17 cell proliferation assay (human IL-1β [1]): 5 fold | IC50, T1165.17 cell proliferation assay (human IL-1β 0.3 pM) (human IL-1β [1]): 4 pM
